Assay results taken from paper PMC5897841, “Development of a multipurpose scaffold for the display of peptide loops” (Protein Engineering, Design and Selection, 2017).
Each block holds one substance with its values, some of them ahead of it. Bridge positions count the residues as written; N and C are the ends. Ends that are not written are not given here.

Tests used:
[1] = target: T1, wild-type Aurora A (Aurora AWT) kinase domain (Homo sapiens, UniProt O14965); experiment: Bio-Layer Interferometry direct binding of Aurora AWT to RAD-TPX2 mutants; details: double His-tagged RAD-TPX2 on Anti-Penta-HIS biosensors, 50 mM HEPES pH 7.4, 500 mM NaCl, 100 mM Mg(CH3COO)2, 0.5 mM ATP, 0.5 mM TCEP, 0.05% P20, 1:1 model, read-out: KD, BLI (Fig. 5a)
T1 construct: Aurora A (126-391)WT; made in house; host or cells: E. coli; plasmid pHAT4-LambdaPP
T1 sequence (O14965 126-391): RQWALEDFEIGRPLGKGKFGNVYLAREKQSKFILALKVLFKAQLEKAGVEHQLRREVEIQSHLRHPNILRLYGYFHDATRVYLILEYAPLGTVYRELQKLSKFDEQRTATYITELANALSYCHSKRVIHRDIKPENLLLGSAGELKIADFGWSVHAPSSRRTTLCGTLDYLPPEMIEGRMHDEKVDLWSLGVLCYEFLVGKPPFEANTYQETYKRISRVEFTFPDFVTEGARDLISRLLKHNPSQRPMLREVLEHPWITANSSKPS
Protocol: Octet RED96 (ForteBio) instrument was used for BLI analysis for double His-tagged RAD-TPX2/Aurora AWT interactions. Experiments were performed using Anti-Penta-HIS biosensors (ForteBio), which were regenerated with 10 mM glycine, pH 1.7. IMAC purified RAD proteins displaying wild-type sequence or alanine mutants of the TPX2 were buffer exchanged into 50 mM HEPES pH 7.4, 500 mM NaCl, 100 mM Mg(CH3COO)2, 0.5 mM ATP, 0.5 mM TCEP, 0.05% P20 (assay buffer). For binding assays pre-wet sensors were loaded with double His-tag labeled proteins at 1 μM in assay buffer. Dilution series (from 0 to 500 or 5000 nM) of Aurora AWT kinase construct without His-tag was prepared in the assay buffer and following experimental setup was used for each measurement cycle: regeneration 3 × 5 s, baseline monitoring 120 s, sample loading 200 s, baseline monitoring 150 s, ligand binding (association) 400 s and ligand dissociation 600 s, followed by regeneration and the next cycle. Regenerated Anti-Penta-HIS biosensors were used to perform double referencing. Data was processed using ForteBio Analysis 7.1 software and dissociation constants were calculated in pro Fit (Quantum Soft) by fitting experimental data to 1:1 binding model equation.

[2] = target: Aurora A; details: N-terminal segment of TPX2; ref Anderson et al., 2007; read-out: Affinity of TPX2 for Aurora A; cited from earlier work
Source text: Aurora A kinase plays an important role in the mitotic spindle assembly and is overexpressed in tumor cells ([Bischoff et al., 1998]). It is known to be dramatically activated by TPX2 protein, which binds to the Aurora A catalytic domain and translocates the kinase to the mitotic spindle during mitosis ([Bischoff et al., 1998]; [Kufer et al., 2002]; [Eyers et al., 2003]).

[3] = target: T2, CK2α kinase (Homo sapiens, UniProt P68400); experiment: Fluorescence anisotropy direct binding of labeled CK2β(186–200) / RAD-CK2β
T2 construct: made in house; host or cells: E. coli BL21(DE3) with pUBS520; pBAT4 plasmid
T2 sequence (P68400 2-329): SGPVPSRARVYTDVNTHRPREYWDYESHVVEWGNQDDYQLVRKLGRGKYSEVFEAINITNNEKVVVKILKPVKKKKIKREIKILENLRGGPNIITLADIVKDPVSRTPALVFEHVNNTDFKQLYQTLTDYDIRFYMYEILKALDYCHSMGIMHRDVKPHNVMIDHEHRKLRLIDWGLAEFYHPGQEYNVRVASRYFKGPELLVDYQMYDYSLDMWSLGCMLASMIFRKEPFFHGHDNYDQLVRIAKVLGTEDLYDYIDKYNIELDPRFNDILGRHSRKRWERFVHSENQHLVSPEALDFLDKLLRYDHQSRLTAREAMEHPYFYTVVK
Protocol: About 100 μg peptide or protein in 500 μl sodium phosphate pH 6.75, 150 mM NaCl were labeled using 30-fold excess of the maleimide dye. The reactions was allowed to proceed for 1 h at room temperature and the Alexa Fluor 488-maleimide was removed by dialysis using 3-kDa molecular weight cut-off membrane against 10 mM Tris pH 8, 250 mM NaCl buffer. Protein and peptide samples were dialyzed for 3 h at room temperature and further purified by SEC using Superdex 75 GL 10/300 or Superdex peptide 10/300 GL column (GE Healthcare). Labeled peptides and proteins were concentrated to 100 μM, flash frozen in liquid nitrogen and stored at −80°C. The concentration of labeled peptide or proteins and degree of labeling was determined by measuring the absorbance at 280 and 495 nm.
(§1) A stock solution of Alexa Fluor 488-labeled peptide or display proteins was diluted in assay buffer to concentration of 20 nM. For both studies, 10 mM HEPES pH 7.4, 500 mM NaCl, 1 mM DTT, 0.05% P20 buffer from was used. […] FA was measured using PheraStar spectrofluorimeter plate reader (BMG Laboratories, Durham, NC) equipped with polarization filters (excitation 485 nm, emission 520 nm). Dissociation constants were calculated in pro Fit (Quantum Soft) by fitting experimental data to 1:1 binding model equation.

[4] = tested on: CK2β/CK2α complex; design: method as in Laudet et al., 2007; details: read-out: IC50, inhibition of CK2β/CK2α complex formation; ref Laudet et al., 2007; cited from earlier work
[5] = target: CK2α; design: method as in Raaf et al., 2013; details: ref Raaf et al., 2013; cited from earlier work
[6] = target: T2, CK2α kinase; experiment: Affinities for CK2α across the experimental techniques (ITC, SPR, FA); assay type: binding; details: read-out: KD range between the different experimental techniques
Protocol: All ITC experiments were performed on itc200 instrument (GE Healthcare). Prior to ITC titration, proteins and peptides were buffer exchanged into 10 mM HEPES pH 7.4, 500 mM NaCl, 0.05% P20 surfactant. ITC experiments with Aurora Awt kinase were performed in buffer containing 50 mM HEPES pH 7.4, 100 mM Mg(CH3COO)2, 100 mM NaCl, 1 mM ATP, 1 mM DTT, 0.01% v/v P20. […] In the Aurora AD274N and Aurora AWT binding assays, 50 μM solution of the titrant was injected into 5 μM kinase solution in the cell. […] Binding isotherms were fit by non-linear regression using the single-site model provided by ORIGIN software (Origin Lab). […]
SPR analyses were conducted using a Biacore T100 instrument (GE Healthcare) using CM5 sensor chips to which cRAD display proteins were immobilized through their unique cysteine residues. […] Aurora A binding to TPX-2 peptide and RAD-TPX-2 were analyzed also using kinetic data with heterogenous ligand model, with data presented in the Supplementary Material.
as §1, with “nM.” for “nM. For both studies, 10 mM HEPES pH 7.4, 500 mM NaCl, 1 mM DTT, 0.05% P20 buffer from was used.”

[7] = target: T2, CK2α kinase; experiment: SPR binding of CK2α to immobilized CK2β(186–200) / RAD-CK2β; details: Biacore T100, CM5 chip, ligand immobilized via free cysteine (linear peptide with C-terminal Gly-Cys), 25°C, 10 mM HEPES pH 7.4, 500 mM NaCl, 0.05% P20; data at 200 s post-injection; 1:1 steady-state model; ± from fitting; read-out: Equilibrium dissociation constant (KD), SPR steady-state
Protocol: SPR analyses were conducted using a Biacore T100 instrument (GE Healthcare) using CM5 sensor chips to which cRAD display proteins were immobilized through their unique cysteine residues. All coupling reagents were purchased from GE Healthcare: N-ethyl-N′-dimethylaminopropylcarbodiimide (EDC), 2-(2-pyridinyldithio) ethaneamine hydrochloride (PDEA), N-hydroxysuccinimide (NHS). All immobilizations were conducted at 25°C in running buffer 10 mM HEPES pH 7.4, 500 mM sodium chloride, 0.05% P20. Two CM5 sensor chips were used for the experiments. Peptides and RAD scaffold displaying the peptides were covalently immobilized via free cysteine on the sensor surface in cells 2 and 4, respectively. Cells 1 and 3 were derivatized with cysteine only and served as reference surfaces. Active and reference cells were created automatically using the immobilization surface preparation Wizard software. Immobilization levels for cells 2 and 4 ranged from 240 to 400 RU. […] The dissociation step was 180 s after which sensor surfaces were regenerated by injecting 3 M MgCl2 solution 3 times for 30 sat 60 μl/min. […] Aurora A binding to TPX-2 peptide and RAD-TPX-2 were analyzed also using kinetic data with heterogenous ligand model, with data presented in the Supplementary Material.

[8] = target: T2, CK2α kinase; experiment: ITC binding of CK2β(186–200) peptide / RAD display to CK2α; details: 25°C, 10 mM HEPES pH 7.4, 500 mM NaCl, 0.05% P20, 100 μM titrant into 10 μM CK2α, single titration, ± from fitting, RAD version is cRAD-CK2β(186–200), read-out: Equilibrium dissociation constant (KD), ITC
Protocol: All ITC experiments were performed on itc200 instrument (GE Healthcare). Prior to ITC titration, proteins and peptides were buffer exchanged into 10 mM HEPES pH 7.4, 500 mM NaCl, 0.05% P20 surfactant. ITC experiments with Aurora Awt kinase were performed in buffer containing 50 mM HEPES pH 7.4, 100 mM Mg(CH3COO)2, 100 mM NaCl, 1 mM ATP, 1 mM DTT, 0.01% v/v P20. […] In the Aurora AD274N and Aurora AWT binding assays, 50 μM solution of the titrant was injected into 5 μM kinase solution in the cell. […] Binding isotherms were fit by non-linear regression using the single-site model provided by ORIGIN software (Origin Lab). The stoichiometry of the interaction (N), equilibrium association constant (KA) and change of enthalpy (ΔH) were floated during the fitting.

Kd [1]: 46 nM
Substance: RAD-TPX2(7–43): RAD scaffold (RadA ATPase domain) displaying residues 7–43 of human TPX2

Substance: TPX2: TPX2 protein, binds Aurora A through its N-terminal segment (LSYSYDAPSDFINFSSLDDEGDTQNIDSWFEEKANLENLKGGGCQM; left off: KSI, end not stated, cleaved)
Kd [2]: 2.3 nM

Fold weaker affinity of labeled linear peptide vs RAD display, FA ([3]; fluorescein-labeled linear CK2β peptide relative to RAD-CK2β display): ~ 3 times
Substance: fluorescein labeled linear CK2β peptide: fluorescein labeled linear CK2β(186–200) peptide (RLYGFKIHPMAYQLQ; also: fluorescein label, site not given here; UniProt P67870 186-200, looked up, fragment) [reference compound]

Substance: GCRLYGFKIHGCG (disulfide 2-12 (inferred)) [Pc peptide]
IC50 [4]: 3000 nM
Kd [5]: 559 nM

Substance: CK2β(186–200): synthetic linear peptide, residues 186–200 of human CK2β (RLYGFKIHPMAYQLQ; UniProt P67870 186-200, looked up, fragment)
Kd [6]: 138 to 407 nM
Kd [7]: 407 ± 50 nM
Kd ([3]; fluorescein-labeled linear peptide or Alexa Fluor 488-labeled cRAD-CK2β(186–200), 10 mM HEPES pH 7.4, 500 mM NaCl, 1 mM DTT, 0.05% P20, CK2α 2 nM–2 μM, 15 min room temperature, 1:1 model, ± from fitting, read-out: Equilibrium dissociation constant (KD), FA): 348 ± 27 nM
Kd [8]: 138 ± 13 nM
